For assay [1], the target named is HA of influenza virus X-127 (H1N1) on infected cells (influenza A virus X-127 (H1N1)).
Assay [2] has as its target rosettes of HA from X31 (A/Aichi/2/68xpr/8/34) H3N2 influenza virus (influenza A virus X31 …, UniProt P03437 17-520). The assay is described as follows: ELISA, plates coated with HA rosettes.

In assay [1], “NKp30-Ig fusion protein (from UniProt O14931 19-135) (Fc fusion)” returned an MFI of 6. On the same count and under the same terms, with “NKp44-Ig fusion protein (from UniProt O95944 22-190) (Fc fusion)” the figure was 220; with “NKp46-Ig fusion protein (from UniProt O76036 22-254) (Fc fusion)”, 107. The same measure, in the same setting: in the case of “NKp46D1-Ig fusion protein (membrane distal domain of NKp46 fused to Fc of human IgG1) (from UniProt O76036 22-120) (Fc fusion)” it was 5; in that of “NKp46D2-Ig fusion protein produced in COS cells (membrane proximal domain of NKp46 fused to Fc of human IgG1) (from UniProt O76036 121-254) (Fc fusion)”, 160.

B1: NKp30-Ig fusion protein (Fc fusion, human, UniProt O14931 19-135, looked up, not shown: a dimerising Fc or GST)
chain: LWVSQPPEIRTLEGSSAFLPCSFNASQGRLAIGSVTWFRDEVVPGKEVRNGTPEFRGRLAPLASSRFLHDHQAELHIRDVRGHDASIYVCRVEVLGLGVGTGNGTRLVVEKEHPQLG
For the molecule B1, the binding result in assay [2] is “no binding”.

B2: CD99-Ig fusion protein (Fc fusion)
chain: DGGFDLSDALPDNENKKPTAIPKKPSAGDDFDLGDAVVDGENDDPRPPNPPKPMPNPNPNHPSSSGSFSDADLADGVSGGEGKGGSDGGGSHRKEGEEAD
For B2, the MFI in assay [1] came to 1.

Values taken from patent US20070203054A1 (YISSUM RESEARCH DEVELOPMENT COMPANY OF THE HEBREW …, published 2007).
